{"source": "patent US20240084027A1", "about": "(BEIJING MABWORKS, published 2024)", "key": {"human PD-L1-his protein [1]": {"target": "T1, human PD-L1-his protein (human, UniProt Q9NZQ7 19-238)", "T1 construct": "extracellular domain; also called human PD-L1 (ECD)-his; human PD-L1 protein; not shown: his tag", "T1 sequence (Q9NZQ7 19-238)": "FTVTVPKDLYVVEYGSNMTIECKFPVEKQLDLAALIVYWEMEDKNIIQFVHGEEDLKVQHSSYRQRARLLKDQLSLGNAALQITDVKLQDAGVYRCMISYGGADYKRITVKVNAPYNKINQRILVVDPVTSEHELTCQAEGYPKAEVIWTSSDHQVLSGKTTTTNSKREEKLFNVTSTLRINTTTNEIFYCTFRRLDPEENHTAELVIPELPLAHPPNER", "assay": "SPR on huPDL1 loaded on the chip; 3C2VH6VL5 injected first, anti-PD-L1 sdAb second", "procedure": "To further determine the epitopes the two binding arms of the bi- or multi-specific antibodies bind, a competitive SPR binding assay was performed. Briefly, 1 μg/ml human PD-L1 (ECD)-his proteins (Cat #:10084-H08H, Sino Biological, CN) were coupled to a CM5 biosensor chip (Cat #:BR-1005-30, GE Life Sciences, USA). The un-reacted groups were then blocked with 1 M ethanolamine. The anti-PD-L1 antibodies, 3C2VH6VL5 and 56E5VH5VL4, of 5 μg/ml were respectively injected into the SPR running buffer (IBS-EP buffer, pH7.4, Cat #:BR-1006-69, GE Life Sciences, USA) at 30 μl/min. Then, a second anti-PD-L 1 antibody (i.e., the anti-PD-L1 nanobody) of 5 μg/ml was injected into the SPR running buffer at 30 μL/min. The binding affinity was calculated with the RUs of blank controls subtracted, and the association rate (kₐ) and dissociation rate (kd) were determined using the one-to-one Langmuir binding model."}, "[2]": {"target": "T2, human PD-L1 on HEK293A/human PD-L1 cells (human, UniProt Q9NZQ7 19-290)", "T2 sequence (Q9NZQ7 19-290 limits assumed)": "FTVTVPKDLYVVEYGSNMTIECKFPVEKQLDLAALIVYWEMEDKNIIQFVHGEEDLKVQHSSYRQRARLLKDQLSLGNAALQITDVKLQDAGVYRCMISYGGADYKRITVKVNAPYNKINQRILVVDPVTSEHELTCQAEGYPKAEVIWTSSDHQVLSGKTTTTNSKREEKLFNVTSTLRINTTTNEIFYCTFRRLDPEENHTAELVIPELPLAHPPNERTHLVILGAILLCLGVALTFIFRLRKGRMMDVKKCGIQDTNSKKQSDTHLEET", "assay": "FACS blocking assay on HEK293A/human PD-L1 cells; blocked ligand PD-1-Fc", "procedure": "(§1) The bispecific antibodies were tested for their blocking activity on PD-1-PD-L1 binding by FACS using the HEK293A cells stably expressing human PD-L1 molecules as prepared in Example 1. Briefly, a 96-well plate was seeded with 10⁵ HEK293A/human PD-L1 cells in 100 μl cell culture medium, and then added with 50 μl serially diluted anti-PD-L1 antibody 56E5VH5VL4 or MBS307-3 molecules. After incubation at 4° C. for 1 h. the plate was washed with PBST for 3 times, added with 100 μl 200 μg/ml PD-1-Fc fusion proteins (Cat #:10377-10211, Sino Biological, CN), incubated at 4° C. for 1 h, washed with PBST for 3 times, and added with 1:500 diluted PE-goat anti-human IgG (Cat #:PAI-86078, Thermofisher, USA). After incubation at 4° C. for 1 h, the plate was washed with PBST for 3 times and measured for fluorescence using a FACS machine (BD).\n(§2) Following the protocol of Example 7, the bi- or multi-specific antibodies were tested for their capability to block PD-1-PD-L1 binding by FACS, using the HEK293A cells prepared in Example 1 that stably expressed human PD-L1 molecules."}, "[3]": {"target": "T2, human PD-L1 on HEK293A/human PD-L1 cells", "assay": "FACS blocking assay on HEK293A/human PD-L1 cells; blocked ligand PD-1-Fc", "summary_of_the_method": "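Cells preincubated with serially diluted antibody 1 h at 4° C, washed, then exposed to 200 μg/ml PD-1-Fc for 1 h at 4° C. Bound PD-1-Fc detected with PE-anti-human IgG and read by flow cytometry.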", "remark": "listed apart in the source"}, "[4]": {"target": "T3, human CD40 on HEK293A/human CD40 cells (human, UniProt P25942 21-277)", "T3 sequence (P25942 21-277 limits assumed)": "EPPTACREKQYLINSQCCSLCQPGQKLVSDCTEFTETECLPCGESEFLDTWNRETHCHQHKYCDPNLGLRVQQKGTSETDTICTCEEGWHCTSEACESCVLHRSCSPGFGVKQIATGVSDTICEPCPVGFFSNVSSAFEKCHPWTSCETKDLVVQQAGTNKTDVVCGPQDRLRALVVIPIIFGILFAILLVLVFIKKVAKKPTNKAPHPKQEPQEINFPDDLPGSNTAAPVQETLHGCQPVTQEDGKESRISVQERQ", "assay": "cell-based or functional assay"}, "[5]": {"target": "T3, human CD40 on HEK293A/human CD40 cells", "assay": "FACS on HEK293A/human CD40 cells", "procedure": "(§3) The bispecific antibodies as prepared above were tested for their binding capability to cell surface human, monkey and mouse CD40 proteins by FACS, using the HEK293A cells prepared in Example 1 that stably expressed human, monkey or mouse CD40. Briefly, a 96-well plate was seeded with 10⁵ HEK293A cells in 50 μl PBS, and then added with 100 μl serially diluted anti-CD40 antibody 714VH2VL2 and the bispecific antibodies of the disclosure (starting concentration at 40 μg/ml). After incubation at 4° C. for 1 h, the plate was washed by PBST for 3 times. The plate was added with 1:500 diluted APC-goat anti-mouse IgG (Cat #:405308, BioLegen, USA), incubated at 4° for 1 h, washed with PBS for 3 times, and subjected to fluorescence measurement in a FACS machine (BD).\n(§4) Following the protocols in Example 4 and Example 5, the bi- or multi-specific antibodies of the disclosure were tested for their binding capability to human PD-L1 and human CD40 proteins by FACS using the HEK293A cells prepared in Example 1 that stably expressed human PD-L1 or human CD40."}, "human PD-L1-his protein [6]": {"target": "T1, human PD-L1-his protein", "assay": "SPR (BIAcore 8K), human PD-L1-his coupled to CM5 chip, antibody injected"}, "human CD40-his protein": {"target": "T4, human CD40-his protein (human, UniProt P25942 21-193)", "T4 construct": "Bought protein; also called human CD40 protein; CD40 molecules; not shown: his tag", "T4 sequence (P25942 21-193 limits assumed)": "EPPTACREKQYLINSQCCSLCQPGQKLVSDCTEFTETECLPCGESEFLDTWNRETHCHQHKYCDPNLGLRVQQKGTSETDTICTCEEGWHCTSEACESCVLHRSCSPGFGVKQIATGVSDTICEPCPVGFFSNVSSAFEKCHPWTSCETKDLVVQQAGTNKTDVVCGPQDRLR", "assay": "SPR (BIAcore 8K), human CD40-his coupled to CM5 chip, antibody injected"}, "[7]": {"target": "T3, human CD40 on HEK293A/human CD40 cells", "assay": "FACS on HEK293A/human CD40 cells", "procedure": "as §3, §4", "remark": "listed apart in the source"}, "[8]": {"target": "T2, human PD-L1 on HEK293A/human PD-L1 cells", "assay": "FACS blocking assay on HEK293A/human PD-L1 cells; blocked ligand PD-1-Fc", "procedure": "as §1, §2", "remark": "listed apart in the source"}, "[9]": {"target": "T3, human CD40 on HEK293A/human CD40 cells", "assay": "cell-based or functional assay", "remark": "listed apart in the source"}, "[10]": {"target": "T2, human PD-L1 on HEK293A/human PD-L1 cells", "assay": "FACS on HEK293A/human PD-L1 cells", "summary_of_the_method": "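HEK293A cells stably expressing the target (10⁵ cells/well) incubated with serially diluted antibodies from 40 μg/ml, 1 h at 4 °C. After PBST washes, bound antibody detected with 1:500 APC-goat anti-mouse IgG for 1 h at 4 °C and read by flow cytometry.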"}}, "note": "Where two headings read alike, the source gives them in different places.", "data": [{"binder": "anti-PD-L1 nanobody (VHH, also called monospecific anti-PD-L1 nanobody) VHH: QVQLLESGGGLVQPGGSLRLSCAASGFAFSDYAMTWVRQAPGKGLEWVSTINSGGQSSSYLDSVKGRFTSSRDNSKNTLYLQMNSLRAEDTAVYYCAKGVYMPWKAPKGQGTLVTVSS", "values": [{"measurement": "binding result", "setting": "human PD-L1-his protein [1]", "result": "binds"}]}, {"binder": "MBS307-9 (bispecific antibody, human IgG1, kappa, L234A L235A, Asymmetric: knob chain with the 56E5VH5VL4 scFv, hole chain with the 3C2VH6VL5 scFv, linker 4 (short linker); also called MBS307-9-1 + MBS307-9-2) heavy 1: QVQLQESGPGLVKPSDTLSLTCAVSGYSITTNYYWNWIRQPPGKGLEWMGYIKYDGSNNYNPSLKNRITISVDTSKNQFSLKLSSVTAVDTAVYYCARLDYWGQGTLVTVSSASTKGPSVFPLAPSSKSTSGGTAALGCLVKDYFPEPVTVSWNSGALTSGVHTFPAVLQSSGLYSLSSVVTVPSSSLGTQTYICNVNHKPSNTKVDKKVEPKSCDKTHTCPPCPAPEAAGGPSVFLFPPKPKDTLMISRTPEVTCVVVDVSHEDPEVKFNWYVDGVEVHNAKTKPREEQYNSTYRVVSVLTVLHQDWLNGKEYKCKVSNKALPAPIEKTISKAKGQPREPQVYTLPPSREEMTKNQVSLWCLVKGFYPSDIAVEWESNGQPENNYKTTPPVLDSDGSFFLYSKLTVDKSRWQQGNVFSCSVMHEALHNHYTQKSLSLSPGGGGGQVQLQESGPGLVKPSQTLSLTCTVSGGSITSDYWNWIRQHPGNKLEYMGYISYTGSTYYNPSLKSRISITRDTSKNQFSLKLSSVTTADTAVYYCARYRDWDVRAMDYWGQGTTVTVSSGGGGSGGGGSGGGGSGGGGSDIVMTQSPDSLAVSLGEKVTMNCKSSQSLLISGNQKNFLTWYQQKPGQPPKLLIYWASTRESGVPDRFSGSGSGTDFTLTISSLQAEDEAVYYCQNDFGFPFTFGQGTKLTAK heavy 2: QVQLQESGPGLVKPSDTLSLTCAVSGYSITTNYYWNWIRQPPGKGLEWMGYIKYDGSNNYNPSLKNRITISVDTSKNQFSLKLSSVTAVDTAVYYCARLDYWGQGTLVTVSSASTKGPSVFPLAPSSKSTSGGTAALGCLVKDYFPEPVTVSWNSGALTSGVHTFPAVLQSSGLYSLSSVVTVPSSSLGTQTYICNVNHKPSNTKVDKKVEPKSCDKTHTCPPCPAPEAAGGPSVFLFPPKPKDTLMISRTPEVTCVVVDVSHEDPEVKFNWYVDGVEVHNAKTKPREEQYNSTYRVVSVLTVLHQDWLNGKEYKCKVSNKALPAPIEKTISKAKGQPREPQVYTLPPSREEMTKNQVSLSCAVKGFYPSDIAVEWESNGQPENNYKTTPPVLDSDGSFFLVSKLTVDKSRWQQGNVFSCSVMHEALHNHYTQKSLSLSPGGGGGQVQLVQSGAEVKKPGASVKVSCKASGYTFTDYHVNWVRQAPGQGLEWIGWIFPGSGRTFYTDKFKGRVTMTVDTSTSTVYMELSSLRSEDTAVYYCATDYGTSGYGLVYWGQGTTVTVSSGGGGSGGGGSGGGGSGGGGSDIQMTQSPSSLSASVGDRVTITCKASDRINNWLAWYQQKPGKAPKLLISGATSLETGVPSRFSGSGSGTDFTLTISSLQPEDEATYYCQQYWNIPFTFGQGTKLTAK light: DVVLTQSPLSLPVTLGQPASISCRSSQSLENSNGNTFLNWFQQRPGQSPRLLIYKVSNRFSGVPDRFSGSGSGTDFTLKISRVEAEDVGVYYCLQVTHVPFTFGQGTKLEIKRTVAAPSVFIFPPSDEQLKSGTASVVCLLNNFYPREAKVQWKVDNALQSGNSQESVTEQDSKDSTYSLSSTLTLSKADYEKHKVYACEVTHQGLSSPVTKSFNRGEC", "values": [{"measurement": "IC50 (read off the curve)", "setting": "[2]", "result": "~0.2", "unit": "µg/mL"}, {"measurement": "IC50 (read off the curve)", "setting": "[3]", "result": "~0.6", "unit": "µg/mL"}, {"measurement": "EC50 (read off the curve); HEK-Blue/CD40 reporter, OD630, plate coated with human PD-L1-his", "setting": "[4]", "result": "~0.02", "unit": "µg/mL"}, {"measurement": "EC50 (read off the curve)", "setting": "[5]", "result": "~0.07", "unit": "µg/mL"}, {"measurement": "Kd", "setting": "human PD-L1-his protein [6]", "result": 0.683, "unit": "nM"}, {"measurement": "Kd", "setting": "human CD40-his protein", "result": 2.9, "unit": "nM"}, {"measurement": "EC50 (read off the curve)", "setting": "[7]", "result": "~0.02", "unit": "µg/mL"}, {"measurement": "IC50 (read off the curve)", "setting": "[8]", "result": "~0.2", "unit": "µg/mL"}, {"measurement": "EC50 (read off the curve); HEK-Blue/CD40 reporter, OD630, plate coated with human PD-L1-his", "setting": "[9]", "result": "~0.01", "unit": "µg/mL"}, {"measurement": "EC50 (read off the curve)", "setting": "[10]", "result": "~0.2", "unit": "µg/mL"}]}]}
